Source: paper PMC6697681, “The predominance of nucleotidyl activation in bacterial phosphonate biosynthesis” (Nature Communications, 2019)

Molecular target: the molecule itself
Assay: dynamic light scattering; 20 µl of freshly purified protein (8 mg/ml) at 20 °C, DynaPro NanoStar; self-association (oligomeric state)

B1: Tde1415 (Tde-PntC; two-domain protein with an N-terminal PntC and a C-terminal AEPT domain) from Treponema denticola (enzyme, Treponema denticola ATCC 35405)
chain: MIKQAVILAGGLGSRLKDKTKTMPKGFLEIGGTAIVEQSVQKLLAHGIEKIVIGTGHCNEYYDNLAKKYPAIITVKNENYANTGSMGTLEVCASFVNESFLLLESDLIYDSAGLFSLINDERKNLILASGATKSGDEVYLEADEKNCLTGLSKNRDALKNIFGELVGITKLTKSTLDKMCAYAKIHHSDLPKMEYEHALLEAAKTIPVAIKRIEYFVWREIDNEDHLEMAVKNIYPHIVENEKLRAVRREVLLNPGPATTTDSVKYAQVSADICPREKAFGDLMQWLCDELKLFALASETNPDEYETVMFGCSGTGADEVMVSSCVPDTGRLLVIDNGSYGARMAKIADIYKIPMDIFKSSTYEPLDLQKLEAEFATKKYTHLACVYHETTTGLLNPLHIICPMAKKYGMVTIVDAVSAYCGMPMDLKSLGIDFMASTSNKNIQGMAGVGFVICNKAELEKTKDYPMRNYYLNLYDQYAYFAKTHQTRFTPPVQTMYALRQAVLETKQETVQKRYERYTACWNILVAAIKKLGLKMLVKEEHQSHFITAILEPETPKYSFEALHDFAAEHSFTIYPGKLGNIDTFRIANIGDIQPEEMRRFTVKLKEYMNGIGVGV
notes: Tde1415 (Tde-PntC) from T. denticola ATCC 35405, NCBI NP_992021; N-terminal PntC cytidylyltransferase domain joined to a C-terminal AEP transaminase (AEPT) domain; predicted monomeric molecular weight ~70 kDa; gene subcloned without its stop codon as NdeI/NotI fragment into pET21b (pGH3000); Dimer by DLS; source: E. coli BL21(DE3), purified (Ni-NTA, HiTrap Q FF anion exchange)
stoichiometry N: 2
